Assay [1] has as its target T1, human transferrin receptor (hTfR) (human, UniProt P02786 89-760).
T1 construct: used as 0.5 uM hTfR dimer solution, immobilised on an NTA sensor chip (Ni capture plus EDC/NHS coupling); also called human TfR; TfR1
In words: SPR; C = KD 100 nM-1 uM. As to the method:
(§1) NTA sensor chip (Global Life Sciences Technologies Japan K.K.) was inserted into BiacoreT200 (Global Life Sciences Technologies Japan K.K.), then the priming operation was performed three times by using running buffer containing: 10 mM HEPES pH 8.0 (Nacalai Tesque, Inc.), 150 mM NaCl (Nacalai Tesque, Inc.), 0.05% Tween 20 (Nacalai Tesque, Inc.), 0.1% BSA (SIGMA-ALDRICH) and 1.0% DMSO (FUJIFILM Wako Pure Chemical Corporation), and equilibrated at a flow rate of 30 μL/min. 350 mM EDTA solution was reacted at a flow rate of 10 μL/min for 60 seconds, 0.5 mM […] solution (Kishida Chemical Co., Ltd.) was reacted at a flow rate of 10 μL/min for 60 seconds, and then the NTA sensor chip was washed with 3 mM EDTA solution (Nacalai Tesque, Inc.) at a flow rate of 10 μL/min for 60 seconds. After mixing 50 μL each of 60 mM EDC solution (Global Life Science Technologies Japan K.K.) and 650 mM NHS solution (Global Life Science Technologies Japan K.K.), the reaction was carried out at a flow rate of 10 μL/min for 420 seconds. 150 μL of 0.5 μM hTfR dimer solution was prepared by dilution with running buffer and reacted at a flow rate of 10 μL/min for 300 seconds to immobilize hTfR on the NTA sensor chip. For the human transferrin receptor (hTfR), recombinant hTfR described in Example 2 of WO2018/124121 was used. After immobilization, capping was performed by reacting with 1.0 M ethanolamine solution (Global Life Sciences Technologies Japan K.K.) at a flow rate of 10 μL/min for 420 seconds. Peptide lysate prepared in DMSO solution to 10 mM was diluted with running buffer to be a final concentration of 10 μM peptide lysate, then peptide solutions of 100 nM, 50 nM, 25 nM, 10 nM, and 5 nM were prepared. Using the above samples, the kinetics of the peptide against hTfR was obtained by SPR measurement.
(§2) The kinetic evaluation model was single-cycle kinetics, and curve fitting was performed using Biacore T200 Evaluation Software Version 3.0 (Global Life Science Technologies Japan K.K.). The binding of the peptide to hTfR was evaluated by performing curve fitting on the obtained sensorgram by least squares method and obtaining the KD value.

For assay [2], the target named is T1, human transferrin receptor (hTfR). Description: SPR, hTfR immobilised; legend: low signal indicates no activity. The method, then:
(§3) NTA sensor chip (Global Life Sciences Technologies Japan K.K.) was inserted into BiacoreT200 (Global Life Sciences Technologies Japan K.K.), then the priming operation was performed three times by using running buffer containing: 10 mM HEPES pH 8.0 (Nacalai Tesque, Inc.), 150 mM NaCl (Nacalai Tesque, Inc.), 0.05% Tween 20 (Nacalai Tesque, Inc.), 0.1% BSA (SIGMA-ALDRICH) and 1.0% DMSO (FUJIFILM Wako Pure Chemical Corporation), and equilibrated at a flow rate of 30 μL/min. 350 mM EDTA solution was reacted at a flow rate of 10 μL/min for 60 seconds, 0.5 mM […] solution (Kishida Chemical Co., Ltd.) was reacted at a flow rate of 10 μL/min for 60 seconds, and then the NTA sensor chip was washed with 3 mM EDTA solution (Nacalai Tesque, Inc.) at a flow rate of 10 μL/min for 60 seconds. After mixing 50 μL each of 60 mM EDC solution (Global Life Science Technologies Japan K.K.) and 650 mM NHS solution (Global Life Science Technologies Japan K.K.), the reaction was carried out at a flow rate of 10 μL/min for 420 seconds. […]
as §2
(Surface plasmon resonance follows binding to a sensor surface in real time, without labels.)

Assay [3] shares this target. Description: SPR; A = KD <1 nM. As to the method: as §1, §2
For assay [4] the target is unchanged. Description: SPR; ratio to 894_3151.
Assay [5] shares this target. Description: SPR, hTfR immobilised, single-cycle kinetics. The method, then:
as §3, §2

“And” between values parts separate entries of the source, which are not always exact repeats. Equal values may be shown once. Starred links: 1 amine or outer side, 2 acyl side, 3 side chain; linkers in the order of their positions; H or OH if unused. Positions of bridges follow the written chain, without caps; N, C: chain ends. Non-standard residues stand in square brackets, D forms with d. Primed or numbered codes have the meaning given here. No end group written: not given here. *: point of attachment. E(PEG8Me) = (S)-30-amino-27-oxo-2,5,8,11,14,17,20,23-octaoxa-26-azahentriacontane-31-oic acid, COCCOCCOCCOCCOCCOCCOCCOCCNC(=O)CC[C@H](N[*:1])C(=O)[*:2]; Phe(4-OMe)(3) = (S)-2-amino-3-(4-methoxyphenyl)propanoic acid (source code F4OMe), COc1ccc(C[C@H](N[*:1])C(=O)[*:2])cc1; F4aao = (S)-2-amino-3-(4-(carboxymethoxy)phenyl)propanoic acid, O=C([C@H](Cc1ccc(OCC(=O)[*:3])cc1)N[*:1])[*:2]; Ndm = N4,N4-dimethyl-L-asparagine, CN(C)C(=O)C[C@H](N[*:1])C(=O)[*:2]; Trp(1-CH2CO) = O=C([C@H](Cc1cn(CC(=O)[*:3])c2ccccc12)N[*:1])[*:2]; Trp(5-Cl) = N[C@@H](Cc1c[nH]c2ccc(Cl)cc12)C(=O)O; Phe(3-COOH) = N[C@@H](Cc1cccc(C(=O)O)c1)C(=O)O; NH(CH2CH2O)8Me = COCCOCCOCCOCCOCCOCCOCCOCCN*; NMePhe(3-Cl) = CN[C@@H](Cc1cccc(Cl)c1)C(=O)O; NMePhe(4-F) = CN[C@@H](Cc1ccc(F)cc1)C(=O)O; 3Pal(6-NH2) = Nc1ccc(C[C@H](N)C(=O)O)cn1; NMeY = CN[C@@H](Cc1ccc(O)cc1)C(=O)O; NMeR = CN[C@@H](CCCNC(=N)N)C(=O)O; NMeF = CN[C@@H](Cc1ccccc1)C(=O)O; 3Pal = N[C@@H](Cc1cccnc1)C(=O)O; 4Pal = N[C@@H](Cc1ccncc1)C(=O)O A value given as a limit tells only on which side of the number the result lay.

For orientation: KD means a measure of binding affinity in units of concentration. A low value points to a tighter complex. The term Kd denotes the concentration at which binding is half-saturated.

T1 sequence (P02786 89-760 limits assumed): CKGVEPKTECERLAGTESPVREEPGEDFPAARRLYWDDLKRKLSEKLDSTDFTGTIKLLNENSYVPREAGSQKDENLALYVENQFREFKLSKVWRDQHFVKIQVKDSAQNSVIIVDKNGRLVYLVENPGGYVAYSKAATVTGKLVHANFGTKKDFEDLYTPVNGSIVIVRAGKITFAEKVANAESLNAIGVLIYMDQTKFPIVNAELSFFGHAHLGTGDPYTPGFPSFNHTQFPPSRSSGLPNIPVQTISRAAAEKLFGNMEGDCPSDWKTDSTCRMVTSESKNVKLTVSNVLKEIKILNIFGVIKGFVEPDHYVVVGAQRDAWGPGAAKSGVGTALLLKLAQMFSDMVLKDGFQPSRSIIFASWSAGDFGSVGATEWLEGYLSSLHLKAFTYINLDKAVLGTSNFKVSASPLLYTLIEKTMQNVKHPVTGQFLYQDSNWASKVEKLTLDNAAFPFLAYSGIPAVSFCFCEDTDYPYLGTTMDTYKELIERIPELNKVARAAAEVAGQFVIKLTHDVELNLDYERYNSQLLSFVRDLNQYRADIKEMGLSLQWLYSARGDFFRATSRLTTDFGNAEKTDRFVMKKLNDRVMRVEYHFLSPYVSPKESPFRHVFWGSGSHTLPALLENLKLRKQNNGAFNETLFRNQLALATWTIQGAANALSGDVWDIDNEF

B1: 894_0257 (peptide)
peptide: {CH2CO}-AV[NMePhe(4-F)]V[Trp(5-Cl)]NYYII[NMeR][dR]FYC-NH2
modifications: thioether N-15; not fully specified (residue 14); also: linker PEG4c, place not given here
B1 returned a dissociation constant KD in assay [1] of 100 to 1000 nM.

For the molecule {CH2CO}-AV[NMePhe(3-Cl)]V[Trp(1-CH2CO)]N[3Pal(6-NH2)][F4aao]IIRE(NH(CH2CH2O)8Me)[4Pal][NMeY]C-NH2 (thioether N-15; also: linker PEG4c) [894_0356], in assay [1], the KD lay within 100 to 1000 nM. For the molecule {CH2CO}-AV[NMePhe(3-Cl)]V[Trp(1-CH2CO)]NY[Phe(4-OMe)(3)]IE[E(PEG8Me)][E(PEG8Me)]F[NMeY]C-NH2 (thioether N-15; also: linker G-de-de-de-ds-ds-KN3, attachment not given here) [894_3180], the binding result in assay [2] is reported as “no binding (tested: peptide tested up to 100 nM)”. {CH2CO}-AV[NMePhe(3-Cl)]V[Trp(1-CH2CO)]N[3Pal(6-NH2)][3Pal]IIRE(NH(CH2CH2O)8Me)[4Pal][NMeY]C-NH2 (thioether N-15; also: linker PEG4c) [894_0354]: the dissociation constant KD in assay [1] was in the range of 100 to 1000 nM. Take {CH2CO}-AV[NMeF]VWNYYIIRRY[NMeY]C (thioether N-15; not fully specified (C-terminus)) [894_3151]: the dissociation constant (KD) in assay [3] is < 1 nM. In addition, the “KD (Each Peptide)/KD (894_3151)” value in assay [4] was 1 and 1.4. Besides, the Kd in assay [5] is 1.3 nM and 1.8 nM.

As for {CH2CO}-AV[NMePhe(3-Cl)]VWN[3Pal(6-NH2)][F4aao]II[E(PEG8Me)]R[4Pal][NMeY]C-NH2 (thioether N-15; also: linker PEG4c, attachment not given here) [894_0455], the KD in assay [1] fell in the range of 100 to 1000 nM. On the same count and under the same terms, the figure for {CH2CO}-AV[NMePhe(3-Cl)]V[Trp(1-CH2CO)]N[3Pal(6-NH2)][3Pal]IIRE(NH(CH2CH2O)8Me)[Phe(3-COOH)][NMeY]C-NH2 (thioether N-15; also: linker PEG4c) [894_0353] is 100 to 1000 nM; for {CH2CO}-AV[NMePhe(3-Cl)]V[Trp(1-CH2CO)]N[3Pal(6-NH2)][F4aao]IIRE(NH(CH2CH2O)8Me)[Phe(3-COOH)][NMeY]C-NH2 (thioether N-15; also: linker PEG4c) [894_0355] it is 100 to 1000 nM.

B2: 894_3152 (peptide)
peptide: {CH2CO}-AV[NMeF]VW[Ndm]YYIIRRY[NMeY]C-NH2
modifications: thioether N-15
SMILES: CC[C@H](C)[C@@H]1NC(=O)[C@H](Cc2ccc(O)cc2)NC(=O)[C@H](Cc2ccc(O)cc2)NC(=O)[C@H](CC(=O)N(C)C)NC(=O)[C@H](Cc2c[nH]c3ccccc23)NC(=O)[C@H](C(C)C)NC(=O)[C@H](Cc2ccccc2)N(C)C(=O)[C@H](C(C)C)NC(=O)[C@H](C)NC(=O)CSC[C@@H](C(N)=O)NC(=O)[C@H](Cc2ccc(O)cc2)N(C)C(=O)[C@H](Cc2ccc(O)cc2)NC(=O)[C@H](CCCNC(=N)N)NC(=O)[C@H](CCCNC(=N)N)NC(=O)[C@H]([C@@H](C)CC)NC1=O
B2 gave a dissociation constant KD in assay [1] of 100 to 1000 nM.

The values are drawn from patent US20260116920A1 (PEPTIDREAM, published 2026).
